B1: BK channel β1 subunit: N80Q/N142Q (protein)
parent chain: MVKKLVMAQKRGETRALCLGVTMVVCAVITYYILVTTVLPLYQKSVWTQESKCHLIETNIRDQEELKGKKVPQYPCLWVNVSAAGRWAVLYHTEDTRDQNQQCSYIPGSVDNYQTARADVEKVRAKFQEQQVFYCFSAPRGNETSVLFQRLYGPQALLFSLFWPTFLLTGGLLIIAMVKSNQYLSILAAQK
B2: BK channel β1 subunit: PNGase F (protein)
parent chain: B1 parent chain
B3: BK channel β1 subunit: tunicamycin (protein)
parent chain: B1 parent chain
B4: BK channel β1 subunit: N80A/N142A (protein)
parent chain: B1 parent chain

Experiments:
[1] = western blot, relative β1 level; conditions: glycan lost; control: wild-type β1, untreated
[2] = whole-cell patch clamp, current density; conditions: glycan lost; control: wild-type BK (α+β1)
[3] = whole-cell G-V curve, Boltzmann fit, 300 nM Ca2+; conditions: glycan lost; control: wild-type BK (α+β1)
[4] = whole-cell patch clamp, 100 nM IbTx, 300 nM Ca2+; conditions: glycan lost; control: wild-type BK (α+β1)
[5] = whole-cell patch clamp, 400 nM martentoxin, 300 nM Ca2+; conditions: glycan lost; control: wild-type BK (α+β1)
[6] = whole-cell patch clamp, 400 nM martentoxin, no cytoplasmic Ca2+; conditions: glycan lost; control: wild-type BK (α+β1)
[7] = activation time constant, single exponential fit, +50 to +120 mV; conditions: glycan lost; control: wild-type BK (α+β1)
[8] = whole-cell patch clamp, 100 nM IbTX, 300 nM Ca2+; conditions: glycan lost; control: untreated wild-type BK (α+β1)
[9] = whole-cell patch clamp, 400 nM IbTX, 300 nM Ca2+; conditions: glycan lost; control: untreated wild-type BK (α+β1)
[10] = whole-cell patch clamp, 100 nM MarTX, no cytoplasmic Ca2+; conditions: glycan lost; control: untreated wild-type BK (α+β1)
[11] = whole-cell patch clamp, 400 nM MarTX, no cytoplasmic Ca2+; conditions: glycan lost; control: untreated wild-type BK (α+β1)

Protein	expression_or_secretion [1]	other: channel current [2]	other: voltage dependence of activation, other: V1/2 [3]	other: toxin inhibition of channel current, other: fractional current remaining (If) [4]	other: toxin enhancement of channel current, other: fractional current remaining (If) [5]	other: toxin inhibition of channel current, other: fractional current remaining (If) [6]	other: channel activation kinetics [7]	other: toxin inhibition of channel current, other: fractional current remaining (If) [8]	other: toxin inhibition of channel current, other: fractional current remaining (If) [9]	other: toxin inhibition of channel current, other: fractional current remaining (If) [10]	other: toxin inhibition of channel current, other: fractional current remaining (If) [11]
B1	no change	no change	no change, 65.35 ± 1.48 vs 66.52 ± 1.47, slope 22.89 ± 1.24 vs 22.55 ± 1.21	increases, 0.46 ± 0.04 vs 0.92 ± 0.01	abolishes, 1.04 ± 0.02 vs 1.13 ± 0.01	increases, 0.72 ± 0.099 vs 0.97 ± 0.018	decreases	–	–	–	–
B2	–	–	–	–	–	–	–	increases, 0.54 ± 0.05 vs 0.89 ± 0.01	increases, 0.43 ± 0.06 vs 0.65 ± 0.03	increases, 0.83 ± 0.03 vs 1.00 ± 0.03	increases, 0.63 ± 0.02 vs 1.00 ± 0.03
B3	no change	–	–	–	–	–	–	–	–	–	–
B4	no change	no change	–	increases, 0.46 ± 0.04 vs 0.92 ± 0.01	abolishes, 0.99 ± 0.02 vs 1.13 ± 0.01	increases, 0.71 ± 0.064 vs 0.97 ± 0.018	–	–	–	–	–
